Assay results from PMC2795092.

Biological target: purified full-length human hexahistidine-tagged 14-3-3η (human) (UniProt Q04917)
Test: pull-down

Sequence of UniProt Q04917 (Q04917 whole entry): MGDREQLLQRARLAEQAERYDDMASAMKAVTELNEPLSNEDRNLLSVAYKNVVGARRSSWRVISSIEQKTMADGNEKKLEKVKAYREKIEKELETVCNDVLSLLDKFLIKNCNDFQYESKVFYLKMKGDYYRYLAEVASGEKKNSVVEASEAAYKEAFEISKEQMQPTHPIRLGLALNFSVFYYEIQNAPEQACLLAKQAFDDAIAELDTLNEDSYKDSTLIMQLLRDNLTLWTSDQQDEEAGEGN

Substance: in vitro translated 35S-labeled androgen receptor (AR) (from UniProt P10275 1-920)
- densitometry of bound [35S] AR: 15000
